Source: PMC10558600 (Heliyon, 2023)
Read-outs that look alike come from different tables or passages of the source.

How the values were obtained:
Test in all cases: ELISA
[1] = target: T1, Cry4Ba-domain II fragment (Bacillus thuringiensis subsp. …, UniProt P05519 286-470)
T1 sequence: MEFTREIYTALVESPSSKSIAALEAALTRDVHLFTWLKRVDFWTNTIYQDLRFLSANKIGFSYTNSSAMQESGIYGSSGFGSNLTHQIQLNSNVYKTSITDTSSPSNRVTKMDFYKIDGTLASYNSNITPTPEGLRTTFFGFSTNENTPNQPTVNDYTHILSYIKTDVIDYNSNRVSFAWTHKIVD

[2] = target: T2, Cry4Ba-domain III fragment (Bacillus thuringiensis subsp. …)
T2 sequence (P05519 whole entry, looked up): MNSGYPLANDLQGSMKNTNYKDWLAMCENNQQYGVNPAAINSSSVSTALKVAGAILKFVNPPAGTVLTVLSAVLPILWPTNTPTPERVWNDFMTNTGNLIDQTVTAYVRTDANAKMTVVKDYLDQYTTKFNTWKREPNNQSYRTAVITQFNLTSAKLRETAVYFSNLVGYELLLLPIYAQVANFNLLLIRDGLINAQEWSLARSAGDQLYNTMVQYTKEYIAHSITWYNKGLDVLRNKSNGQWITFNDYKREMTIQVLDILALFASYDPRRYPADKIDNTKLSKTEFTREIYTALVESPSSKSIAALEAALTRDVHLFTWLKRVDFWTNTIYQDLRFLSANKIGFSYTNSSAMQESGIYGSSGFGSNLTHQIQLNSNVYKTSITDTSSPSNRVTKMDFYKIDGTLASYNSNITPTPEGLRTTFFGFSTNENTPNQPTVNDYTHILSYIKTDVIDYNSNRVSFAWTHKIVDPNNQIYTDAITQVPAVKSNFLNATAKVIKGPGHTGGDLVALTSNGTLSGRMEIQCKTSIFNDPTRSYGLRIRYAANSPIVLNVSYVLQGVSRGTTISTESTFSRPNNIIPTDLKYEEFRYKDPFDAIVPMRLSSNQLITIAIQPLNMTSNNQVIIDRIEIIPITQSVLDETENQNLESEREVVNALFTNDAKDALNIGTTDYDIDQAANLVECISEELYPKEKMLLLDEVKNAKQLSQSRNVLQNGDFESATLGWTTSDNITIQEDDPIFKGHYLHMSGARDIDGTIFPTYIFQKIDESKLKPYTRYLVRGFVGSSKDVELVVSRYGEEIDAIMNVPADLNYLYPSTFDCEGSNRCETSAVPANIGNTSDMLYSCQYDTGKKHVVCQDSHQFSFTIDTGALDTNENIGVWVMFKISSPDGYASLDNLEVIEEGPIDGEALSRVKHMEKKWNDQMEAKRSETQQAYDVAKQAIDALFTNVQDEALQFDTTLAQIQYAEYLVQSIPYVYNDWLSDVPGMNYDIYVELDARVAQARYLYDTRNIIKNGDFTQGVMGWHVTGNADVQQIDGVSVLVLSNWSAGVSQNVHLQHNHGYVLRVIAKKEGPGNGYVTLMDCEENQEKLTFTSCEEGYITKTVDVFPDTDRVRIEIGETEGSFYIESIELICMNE

[3] = target: T1, Cry4Ba-domain II fragment; remark: listed apart in the source

B1: Aedes aegypti membrane-bound alkaline phosphatase (Aa-mALP) (receptor)
chain: MTLYRSRAANMSRLRFDVSVWVMVTMCVLSARNCWAQGEYDPNYWNQQAHDLLFEKKDYTMQKVNIAKNIIVFVGSGMSQATVTAARTHKGGENATFPFEQLKWSGNARTYCVDSRVPDSACASTAFLTGVKSNLGTVAVHPNVKRGDCVATSDKVKQLESIAKWALAEGRVVGFATTSRVTAGSNAALYAHSADKDWENDASVTAAGCNATQVNDIAYQLINGDVGKHFKVIFGGGRKNFIPNTETDESGARGLRTDGKNLIQEWKESKTGNAVYITTNSELGALNTTNIDYLMGLFSYDRLPYAADMGEEPNKETPPLVRMVHYSLEMLQKKEHSGGFLLFVEDGNIQEAHKENKPIKAFEQVKHYANAFNMAHMMVSEANTLLISMNDVGSTLSIPGYPARDTDILTEAGTSDKDSKPYLSLAYATGPSYDSYYQPNEGRVNPLAVLQGTPTQKEQTCSAAVPMSEGVNGGEDASVYATGPWAFMFSGGYEQNFIAHAISFASCITDVCGGASSVVVSSAALLLALMVRVFA
B1 showed a Kd [1] of 118 nM, a Kd [2] of 118 ± 8.1 nM and a Kd [3] of 116 nM.
